Here are results for three molecules from publication PMC10272136, “Molecular mechanisms of Holliday junction branch migration catalyzed by an asymmetric RuvB hexamer” (Nature Communications, 2022).

Where “and” joins values, the source holds several entries; their conditions need not be identical. Equal values may be shown once.

For one data set, the target named is T1, RuvA (Thermus thermophilus, UniProt Q9F1Q3 1-191).
T1 sequence: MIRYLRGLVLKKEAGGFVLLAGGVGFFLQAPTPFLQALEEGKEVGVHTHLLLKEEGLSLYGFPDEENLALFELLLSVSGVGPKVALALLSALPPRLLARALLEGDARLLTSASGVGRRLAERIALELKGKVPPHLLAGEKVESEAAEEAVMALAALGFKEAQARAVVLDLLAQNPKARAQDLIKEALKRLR
In words: cryo-EM structure; from RuvA-RuvB-HJ sample; RuvA tetramer binds HJ core; 20 mM Tris-HCl pH 7.5, 10 mM MgCl2, 1 mM DTT, 2 mM ATPgS, 30 min at 37 C; gel filtration in 20 mM Tris-HCl, 150 mM NaCl. The settings on record: protein: recombinant; tags: N-terminal His tag (pET-28a, NdeI/XhoI); chain copies: 4; four-way junction of 4 strands, 1 copy each.

A further data set addresses T2, RuvB (Thermus thermophilus, UniProt Q5SL87 1-324).
T2 sequence: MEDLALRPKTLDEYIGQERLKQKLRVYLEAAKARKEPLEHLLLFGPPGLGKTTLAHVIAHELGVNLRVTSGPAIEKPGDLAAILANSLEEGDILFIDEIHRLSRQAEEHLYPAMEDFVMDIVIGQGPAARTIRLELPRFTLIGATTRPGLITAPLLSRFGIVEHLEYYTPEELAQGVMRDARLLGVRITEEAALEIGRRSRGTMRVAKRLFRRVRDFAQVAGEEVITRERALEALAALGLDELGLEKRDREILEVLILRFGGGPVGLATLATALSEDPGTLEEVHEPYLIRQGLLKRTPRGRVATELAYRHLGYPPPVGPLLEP
In words: gel filtration; 2 mM ATPgS, 10 mM MgCl2; DNA:RuvB monomer 1:6; 20 mM Tris-HCl pH 7.5, 10 mM MgCl2, 1 mM DTT, 2 mM ATPgS, 30 min at 37 C; gel filtration in 20 mM Tris-HCl, 150 mM NaCl. The settings on record: protein: recombinant; tags: N-terminal His tag (pET-28a, NdeI/SalI); chain copies: 6; four-way junction of 4 strands, 1 copy each.

Data set [1] deals with the molecule itself. In words: cryo-EM structure; RuvB mixed with annealed HJ DNA at 1:6 (DNA/RuvB monomer) in 20 mM Tris-HCl pH 7.5, 10 mM MgCl2, 1 mM DTT, 2 mM ATP-γ-S, 30 min at 37 °C; complex purified by gel filtration; two maps (hexamer 2.97 Å, C1; dodecamer 3.2 Å, C2). Background: In gel filtration, larger molecules generally elute earlier.
Data set [2] deals with the molecule itself. Kind of data set: cryo-EM structure; sample of RuvA, RuvB and HJ DNA (6:4:1 RuvB:RuvA:HJ DNA); only a RuvA-HJ DNA structure was obtained; C4 symmetry, 4.3 Å.

B1: HJ DNA (HJ1-HJ4) (structured_DNA)
DNA 1: AGAATCTGCCGAGAGACCGAGCAGAATTCTATGTGTTTACCAAGCGCTG
DNA 2: CAGCGCTTGGTAAACACATAGAATTCTGCTCGGTCTGAGCCGTCTAAGA
DNA 3: TCTTAGACGGCTCACTGGCTGTGGGATCCGAGCTGTCTAGAGACATCGA
DNA 4: TCGATGTCTCTAGACAGCTCGGATCCCACAGCCAGTCTCGGCAGATTCT
In the case of B1, the binding result in the data set with RuvA and with RuvB was “binds” in each case.

B2: Thermus thermophilus RuvB (enzyme, UniProt Q5SL87 1-324, looked up)
chain: T2 sequence
notes: RuvB, Holliday junction branch migration ATPase (AAA+), Thermus thermophilus; printed MW 35,973; Purified RuvB carried endogenous ADP (native mass spectrometry); It forms the hexamer and dodecamer only in the sample with DNA and ATPγS; also called T. thermophilus RuvB; RuvB protomer; source: E. coli BL21(DE3) RipL, purified (heat step at 55 °C, Ni-NTA, Superdex 200 gel filtration)
In the case of B2, the stoichiometry N (in general, the number of molecules, sites or subunits per partner or assembly) in data set [1] is 6 and 12.

B3: Thermus thermophilus RuvA (natural protein, UniProt Q9F1Q3 1-191, looked up)
chain: T1 sequence
notes: source: E. coli BL21(DE3) RipL, purified (heat step at 55 °C, Ni-NTA, gel filtration)
On to B3, for which the “stoichiometry N” value in data set [2] was 4.
